Reference: IntAct's records for PubMed 28712572

Target: gbrap_human GABARAP (UniProt O95166)
Sequence (O95166 whole entry): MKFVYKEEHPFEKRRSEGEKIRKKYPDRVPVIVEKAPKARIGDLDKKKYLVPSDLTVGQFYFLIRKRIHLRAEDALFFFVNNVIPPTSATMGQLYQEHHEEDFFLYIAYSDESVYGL

Row | effect of a mutation on the interaction | Substance
1 | with no effect | Pericentriolar material 1 protein (Homo sapiens), Q15154 L1969R
2 | with no effect | Pericentriolar material 1 protein (Homo sapiens), Q15154 G1952W
3 | with no effect | Pericentriolar material 1 protein (Homo sapiens), Q15154 S1958E
4 | with no effect | Pericentriolar material 1 protein (Homo sapiens), Q15154 Q1956F
5 | with no effect | Pericentriolar material 1 protein (Homo sapiens), Q15154 D1962G
6 | with no effect | Pericentriolar material 1 protein (Homo sapiens), Q15154 L1969I
7 | with no effect | Pericentriolar material 1 protein (Homo sapiens), Q15154 S1958C
8 | with no effect | Pericentriolar material 1 protein (Homo sapiens), Q15154 E1967H
9 | with no effect | Pericentriolar material 1 protein (Homo sapiens), Q15154 K1965V
10 | with no effect | Pericentriolar material 1 protein (Homo sapiens), Q15154 K1972P
11 | with no effect | Pericentriolar material 1 protein (Homo sapiens), Q15154 L1973W
12 | with no effect | Pericentriolar material 1 protein (Homo sapiens), Q15154 L1973P
13 | disrupting interaction strength | Pericentriolar material 1 protein (Homo sapiens), Q15154 P1970V
14 | decreasing interaction strength | Pericentriolar material 1 protein (Homo sapiens), Q15154 P1970R
15 | with no effect | Pericentriolar material 1 protein (Homo sapiens), Q15154 N1953A
16 | with no effect | Pericentriolar material 1 protein (Homo sapiens), Q15154 E1967S
17 | with no effect | Pericentriolar material 1 protein (Homo sapiens), Q15154 G1952Y
18 | disrupting interaction strength | Pericentriolar material 1 protein (Homo sapiens), Q15154 F1963C
19 | disrupting interaction strength | Pericentriolar material 1 protein (Homo sapiens), Q15154 E1961K
20 | with no effect | Pericentriolar material 1 protein (Homo sapiens), Q15154 N1953C
21 | with no effect | Pericentriolar material 1 protein (Homo sapiens), Q15154 N1953L
22 | disrupting interaction strength | Pericentriolar material 1 protein (Homo sapiens), Q15154 V1966M
23 | with no effect | Pericentriolar material 1 protein (Homo sapiens), Q15154 E1960N

Row | effect of a mutation on the interaction | Substance
24 | disrupting interaction strength | Pericentriolar material 1 protein (Homo sapiens), Q15154 F1963V
25 | with no effect | Pericentriolar material 1 protein (Homo sapiens), Q15154 S1955H
26 | with no effect | Pericentriolar material 1 protein (Homo sapiens), Q15154 Q1956V
27 | with no effect | Pericentriolar material 1 protein (Homo sapiens), Q15154 S1958P
28 | disrupting interaction strength | Pericentriolar material 1 protein (Homo sapiens), Q15154 F1963L
29 | decreasing interaction strength | Pericentriolar material 1 protein (Homo sapiens), Q15154 V1964L
30 | with no effect | Pericentriolar material 1 protein (Homo sapiens), Q15154 L1969Y
31 | decreasing interaction strength | Pericentriolar material 1 protein (Homo sapiens), Q15154 P1970E
32 | with no effect | Pericentriolar material 1 protein (Homo sapiens), Q15154 G1952I
33 | with no effect | Pericentriolar material 1 protein (Homo sapiens), Q15154 E1960I
34 | with no effect | Pericentriolar material 1 protein (Homo sapiens), Q15154 K1965M
35 | with no effect | Pericentriolar material 1 protein (Homo sapiens), Q15154 T1974K
36 | decreasing interaction strength | Pericentriolar material 1 protein (Homo sapiens), Q15154 E1961V
37 | with no effect | Pericentriolar material 1 protein (Homo sapiens), Q15154 T1974G
38 | decreasing interaction strength | Pericentriolar material 1 protein (Homo sapiens), Q15154 E1961R
39 | with no effect | Pericentriolar material 1 protein (Homo sapiens), Q15154 E1967I
40 | with no effect | Pericentriolar material 1 protein (Homo sapiens), Q15154 D1968Q
41 | with no effect | Pericentriolar material 1 protein (Homo sapiens), Q15154 Q1956A
42 | with no effect | Pericentriolar material 1 protein (Homo sapiens), Q15154 E1960T
43 | with no effect | Pericentriolar material 1 protein (Homo sapiens), Q15154 I1975C
44 | with no effect | Pericentriolar material 1 protein (Homo sapiens), Q15154 K1965Q
45 | with no effect | Pericentriolar material 1 protein (Homo sapiens), Q15154 E1967Y
46 | with no effect | Pericentriolar material 1 protein (Homo sapiens), Q15154 I1954N

Row | effect of a mutation on the interaction | Substance
47 | with no effect | Pericentriolar material 1 protein (Homo sapiens), Q15154 K1957V
48 | with no effect | Pericentriolar material 1 protein (Homo sapiens), Q15154 E1960C
49 | with no effect | Pericentriolar material 1 protein (Homo sapiens), Q15154 G1952F
50 | with no effect | Pericentriolar material 1 protein (Homo sapiens), Q15154 L1973I
51 | with no effect | Pericentriolar material 1 protein (Homo sapiens), Q15154 N1953S
52 | decreasing interaction strength | Pericentriolar material 1 protein (Homo sapiens), Q15154 P1970I
53 | with no effect | Pericentriolar material 1 protein (Homo sapiens), Q15154 S1955N
54 | with no effect | Pericentriolar material 1 protein (Homo sapiens), Q15154 T1974S
55 | disrupting interaction strength | Pericentriolar material 1 protein (Homo sapiens), Q15154 F1963A
56 | with no effect | Pericentriolar material 1 protein (Homo sapiens), Q15154 K1972W
57 | disrupting interaction strength | Pericentriolar material 1 protein (Homo sapiens), Q15154 F1963I
58 | disrupting interaction strength | Pericentriolar material 1 protein (Homo sapiens), Q15154 V1966C
59 | with no effect | Pericentriolar material 1 protein (Homo sapiens), Q15154 E1961F
60 | with no effect | Pericentriolar material 1 protein (Homo sapiens), Q15154 E1967F
61 | disrupting interaction strength | Pericentriolar material 1 protein (Homo sapiens), Q15154 V1964T
62 | with no effect | Pericentriolar material 1 protein (Homo sapiens), Q15154 L1969Q
63 | with no effect | Pericentriolar material 1 protein (Homo sapiens), Q15154 L1971T
64 | with no effect | Pericentriolar material 1 protein (Homo sapiens), Q15154 L1973T
65 | with no effect | Pericentriolar material 1 protein (Homo sapiens), Q15154 D1959M
66 | with no effect | Pericentriolar material 1 protein (Homo sapiens), Q15154 K1972Y
67 | with no effect | Pericentriolar material 1 protein (Homo sapiens), Q15154 K1972G
68 | with no effect | Pericentriolar material 1 protein (Homo sapiens), Q15154 D1959S
69 | with no effect | Pericentriolar material 1 protein (Homo sapiens), Q15154 T1974V
